In one experiment the target is Neurexin2α (UniProt E9Q7X7). Description: SPR. On the technique in general: SPR reads the build-up and loss of mass on a sensor chip optically.
The target of experiment [1] is Recombinant human His-tagged IgSF21 protein (R&D Systems #10330-S2) (human, UniProt Q96ID5 25-444). Kind of experiment: SPR.

Neurexin2α, sequence (E9Q7X7 29-1634): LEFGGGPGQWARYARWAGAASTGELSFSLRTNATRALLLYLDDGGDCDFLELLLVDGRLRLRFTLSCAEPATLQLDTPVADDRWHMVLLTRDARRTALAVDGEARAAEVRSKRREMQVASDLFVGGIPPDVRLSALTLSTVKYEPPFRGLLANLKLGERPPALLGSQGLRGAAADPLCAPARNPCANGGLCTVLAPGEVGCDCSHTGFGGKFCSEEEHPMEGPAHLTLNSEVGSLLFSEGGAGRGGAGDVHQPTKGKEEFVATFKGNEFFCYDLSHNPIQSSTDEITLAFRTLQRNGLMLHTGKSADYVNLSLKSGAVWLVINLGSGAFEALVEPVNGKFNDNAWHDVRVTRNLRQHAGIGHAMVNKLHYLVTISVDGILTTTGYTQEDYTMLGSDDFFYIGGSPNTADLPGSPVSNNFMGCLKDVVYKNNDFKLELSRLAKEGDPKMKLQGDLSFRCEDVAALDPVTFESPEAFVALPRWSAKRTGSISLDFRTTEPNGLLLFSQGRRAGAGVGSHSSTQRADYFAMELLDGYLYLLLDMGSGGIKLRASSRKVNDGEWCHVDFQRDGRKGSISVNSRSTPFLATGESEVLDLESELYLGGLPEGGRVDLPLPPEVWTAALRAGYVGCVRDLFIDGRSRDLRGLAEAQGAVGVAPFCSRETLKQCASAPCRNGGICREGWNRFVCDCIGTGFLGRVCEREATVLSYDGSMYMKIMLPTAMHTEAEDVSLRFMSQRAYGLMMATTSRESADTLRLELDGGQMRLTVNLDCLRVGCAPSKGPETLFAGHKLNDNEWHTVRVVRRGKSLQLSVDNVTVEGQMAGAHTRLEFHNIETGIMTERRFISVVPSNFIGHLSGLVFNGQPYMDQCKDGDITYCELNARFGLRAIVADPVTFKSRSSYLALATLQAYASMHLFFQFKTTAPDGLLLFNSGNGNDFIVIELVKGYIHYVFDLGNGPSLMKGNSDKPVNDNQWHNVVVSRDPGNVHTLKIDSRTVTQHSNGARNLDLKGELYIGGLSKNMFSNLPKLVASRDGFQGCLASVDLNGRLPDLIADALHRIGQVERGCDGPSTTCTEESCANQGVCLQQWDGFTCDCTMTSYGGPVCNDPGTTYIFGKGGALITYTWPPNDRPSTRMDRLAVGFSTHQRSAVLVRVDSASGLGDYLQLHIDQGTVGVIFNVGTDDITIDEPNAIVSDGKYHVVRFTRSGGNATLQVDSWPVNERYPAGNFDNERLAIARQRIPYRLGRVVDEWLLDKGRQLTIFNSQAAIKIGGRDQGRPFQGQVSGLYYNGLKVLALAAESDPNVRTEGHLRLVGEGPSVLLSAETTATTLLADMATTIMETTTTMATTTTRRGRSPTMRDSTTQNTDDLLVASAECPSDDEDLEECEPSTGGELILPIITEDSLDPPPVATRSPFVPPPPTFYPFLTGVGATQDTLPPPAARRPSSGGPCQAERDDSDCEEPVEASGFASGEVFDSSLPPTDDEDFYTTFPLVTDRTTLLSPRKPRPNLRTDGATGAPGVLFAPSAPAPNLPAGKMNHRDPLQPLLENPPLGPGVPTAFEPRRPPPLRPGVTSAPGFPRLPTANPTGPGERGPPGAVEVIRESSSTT

B1: IgSF21 (protein)
chain: YLTVNIEPLPPVVAGDAVTLKCNFKTDGRMREIVWYRVTDGGTIKQKIFTFDAMFSTNYSHMENYRKREDLVYQSTVRLPEVRISDNGPYECHVGIYDRATREKVVLASGNIFLNVMAPPTSIEVVAADSPAPFSRYQAQNFTLVCIVSGGKPAPMVYFKRDGEPIDAVPLTELPAASSGPVQDSRPFRSLLHRDVDDTKMQKSLSLLDTEYRAGRPYTERPARSLTQDPSLFVQPTTENIPETVVSREFPRWVHSAEPVYFLRHSRTPGSDGTVEVRALLTWTLNPQIDNEALFSCEVKHPALSMPMQAEVTLVAPKGPKIMMTPSRARVGDTVRILVHGFQNEVFPEPMFTWTRVGSRLLDGSAEFDGKELVLERVPAELNGSMYRCTAQNPLGSTDTHTRLIVFENPNIPRGTEDSRGSASGPAGVRLTLVLALTVILELT
On to B1, for which binding with Neurexin2α was characterised by a dissociation constant (Kd) of 5.67 nM.

B2: Recombinant human Fc-tagged NRXN2α (human Nrxn2α-Fc, R&D Systems #6636-NX) (Fc fusion)
chain: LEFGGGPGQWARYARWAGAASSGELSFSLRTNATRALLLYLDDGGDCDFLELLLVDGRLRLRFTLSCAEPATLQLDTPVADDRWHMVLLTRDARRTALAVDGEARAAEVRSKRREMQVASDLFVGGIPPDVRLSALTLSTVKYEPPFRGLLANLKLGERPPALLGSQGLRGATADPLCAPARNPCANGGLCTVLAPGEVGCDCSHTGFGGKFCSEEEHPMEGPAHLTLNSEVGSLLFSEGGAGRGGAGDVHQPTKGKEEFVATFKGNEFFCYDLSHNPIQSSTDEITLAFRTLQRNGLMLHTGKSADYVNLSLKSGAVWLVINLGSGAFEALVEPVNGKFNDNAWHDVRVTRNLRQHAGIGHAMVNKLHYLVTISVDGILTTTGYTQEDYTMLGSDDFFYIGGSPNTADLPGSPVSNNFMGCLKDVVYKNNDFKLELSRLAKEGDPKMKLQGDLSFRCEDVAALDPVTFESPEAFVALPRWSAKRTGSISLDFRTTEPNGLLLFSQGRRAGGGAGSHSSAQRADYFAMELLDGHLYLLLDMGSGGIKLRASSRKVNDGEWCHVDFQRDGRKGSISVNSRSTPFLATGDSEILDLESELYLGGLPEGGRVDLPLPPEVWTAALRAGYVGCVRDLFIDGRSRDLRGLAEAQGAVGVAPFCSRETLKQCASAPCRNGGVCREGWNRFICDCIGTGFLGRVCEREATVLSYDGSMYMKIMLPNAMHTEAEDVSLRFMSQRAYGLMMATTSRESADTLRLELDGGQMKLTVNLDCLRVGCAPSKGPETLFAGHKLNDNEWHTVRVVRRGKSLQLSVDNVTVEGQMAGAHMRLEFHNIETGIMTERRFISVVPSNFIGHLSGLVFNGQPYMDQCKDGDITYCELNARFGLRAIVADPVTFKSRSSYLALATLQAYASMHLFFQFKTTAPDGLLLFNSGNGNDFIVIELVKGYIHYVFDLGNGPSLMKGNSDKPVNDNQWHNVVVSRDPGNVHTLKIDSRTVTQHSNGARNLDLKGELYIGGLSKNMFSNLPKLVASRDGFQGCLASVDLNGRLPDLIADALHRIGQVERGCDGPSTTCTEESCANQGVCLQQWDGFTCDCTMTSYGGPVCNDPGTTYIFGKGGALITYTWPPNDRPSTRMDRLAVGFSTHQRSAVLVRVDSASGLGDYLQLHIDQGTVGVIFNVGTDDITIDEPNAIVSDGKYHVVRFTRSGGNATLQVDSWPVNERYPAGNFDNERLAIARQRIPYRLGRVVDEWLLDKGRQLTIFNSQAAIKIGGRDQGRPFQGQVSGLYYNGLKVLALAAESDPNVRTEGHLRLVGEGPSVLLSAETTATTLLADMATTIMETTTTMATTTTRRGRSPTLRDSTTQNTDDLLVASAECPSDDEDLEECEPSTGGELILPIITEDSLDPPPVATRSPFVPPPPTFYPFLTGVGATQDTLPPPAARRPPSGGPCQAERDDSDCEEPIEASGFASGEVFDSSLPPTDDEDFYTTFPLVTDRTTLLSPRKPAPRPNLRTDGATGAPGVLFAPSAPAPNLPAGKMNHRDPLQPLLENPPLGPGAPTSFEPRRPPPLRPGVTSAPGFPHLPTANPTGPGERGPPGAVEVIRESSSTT
For B2, in experiment [1], the koff (usually the first-order rate constant of dissociation) amounted to 0.00101 s⁻¹.

For the origin of these results see publication PMC10989685 (2024).
